Consider seven molecules from publication PMC4458174 (DNA repair, 2015).

The target of the test is T1, mouse Myh (mMyh), His-tagged (mouse, UniProt Q99P21 1-515).
T1 sequence (looked up): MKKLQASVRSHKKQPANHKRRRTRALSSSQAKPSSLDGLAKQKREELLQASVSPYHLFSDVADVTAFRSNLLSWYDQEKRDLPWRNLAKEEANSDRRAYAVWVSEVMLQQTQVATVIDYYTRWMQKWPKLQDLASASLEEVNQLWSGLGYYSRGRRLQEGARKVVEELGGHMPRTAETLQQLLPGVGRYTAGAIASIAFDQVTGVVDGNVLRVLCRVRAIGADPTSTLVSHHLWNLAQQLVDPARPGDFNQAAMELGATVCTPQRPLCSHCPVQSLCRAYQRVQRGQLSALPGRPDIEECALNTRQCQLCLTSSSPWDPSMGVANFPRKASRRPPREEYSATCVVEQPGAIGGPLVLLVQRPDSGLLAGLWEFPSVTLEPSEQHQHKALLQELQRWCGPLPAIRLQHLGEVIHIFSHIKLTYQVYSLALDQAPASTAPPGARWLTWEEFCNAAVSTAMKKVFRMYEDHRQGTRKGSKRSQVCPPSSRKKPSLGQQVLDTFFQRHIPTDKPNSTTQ
In words: pull-down.

B1: GST-hHus1N(+) (residues 1-155) (domain or fragment, human, UniProt O60921 1-155, looked up)
chain: MKFRAKIVDGACLNHFTRISNMIAKLAKTCTLRISPDKLNFILCDKLANGGVSMWCELEQENFFNEFQMEGVSAENNEIYLELTSENLSRALKTAQNARALKIKLTNKHFPCLTVSVELLSMSSSSRIVTHDIPIKVIPRKLWKDLQEPVVPDPD
For B1, the binding result was “binds”.

B2: GST-hHus1N(-) (residues 1-133) (domain or fragment, human, UniProt O60921 1-133, looked up)
chain: MKFRAKIVDGACLNHFTRISNMIAKLAKTCTLRISPDKLNFILCDKLANGGVSMWCELEQENFFNEFQMEGVSAENNEIYLELTSENLSRALKTAQNARALKIKLTNKHFPCLTVSVELLSMSSSSRIVTHDI
For B2, the binding result was “binds”.

B3: GST-hHus1C (residues 147-280) (domain or fragment, human, UniProt O60921 147-280, looked up)
chain: QEPVVPDPDVSIYLPVLKTMKSVVEKMKNISNHLVIEANLDGELNLKIETELVCVTTHFKDLGNPPLASESTHEDRNVEHMAEVHIDIRKLLQFLAGQQVNPTKALCNIVNNKMVHFDLLHEDVSLQYFIPALS
With B3, the binding result is given as “binds”.

B4: GST-hHus1N (residues 1-146) (domain or fragment, human, UniProt O60921 1-146, looked up)
chain: MKFRAKIVDGACLNHFTRISNMIAKLAKTCTLRISPDKLNFILCDKLANGGVSMWCELEQENFFNEFQMEGVSAENNEIYLELTSENLSRALKTAQNARALKIKLTNKHFPCLTVSVELLSMSSSSRIVTHDIPIKVIPRKLWKDL
On to B4, for which the binding result is recorded as “binds”.

B5: GST-tagged hHus1 (wild type) (natural protein, human, UniProt O60921 1-280, looked up)
chain: MKFRAKIVDGACLNHFTRISNMIAKLAKTCTLRISPDKLNFILCDKLANGGVSMWCELEQENFFNEFQMEGVSAENNEIYLELTSENLSRALKTAQNARALKIKLTNKHFPCLTVSVELLSMSSSSRIVTHDIPIKVIPRKLWKDLQEPVVPDPDVSIYLPVLKTMKSVVEKMKNISNHLVIEANLDGELNLKIETELVCVTTHFKDLGNPPLASESTHEDRNVEHMAEVHIDIRKLLQFLAGQQVNPTKALCNIVNNKMVHFDLLHEDVSLQYFIPALS
Regarding B5, the binding result is recorded as “binds”.

B6: GST-hHus1 V137A (natural protein, human, UniProt O60921 1-280, looked up)
chain: MKFRAKIVDGACLNHFTRISNMIAKLAKTCTLRISPDKLNFILCDKLANGGVSMWCELEQENFFNEFQMEGVSAENNEIYLELTSENLSRALKTAQNARALKIKLTNKHFPCLTVSVELLSMSSSSRIVTHDIPIKAIPRKLWKDLQEPVVPDPDVSIYLPVLKTMKSVVEKMKNISNHLVIEANLDGELNLKIETELVCVTTHFKDLGNPPLASESTHEDRNVEHMAEVHIDIRKLLQFLAGQQVNPTKALCNIVNNKMVHFDLLHEDVSLQYFIPALS
With B6, the binding result is listed as “binds”.

B7: GST-hHus1 K136A (natural protein, human, UniProt O60921 1-280, looked up)
chain: MKFRAKIVDGACLNHFTRISNMIAKLAKTCTLRISPDKLNFILCDKLANGGVSMWCELEQENFFNEFQMEGVSAENNEIYLELTSENLSRALKTAQNARALKIKLTNKHFPCLTVSVELLSMSSSSRIVTHDIPIAVIPRKLWKDLQEPVVPDPDVSIYLPVLKTMKSVVEKMKNISNHLVIEANLDGELNLKIETELVCVTTHFKDLGNPPLASESTHEDRNVEHMAEVHIDIRKLLQFLAGQQVNPTKALCNIVNNKMVHFDLLHEDVSLQYFIPALS
As for B7, the binding result is listed as “binds”.
